B1: PdhR-binding site of pdhR-aceEF-lpd operon (dsDNA)
DNA 1: GCCGAAGTCAATTGGTCTTACCAATTTCATGTCTGTG
DNA 2: CACAGACATGAAATTGGTAAGACCAATTGACTTCGGC
B2: Mlc-binding site (ptsG) (dsDNA)
DNA 1: TTGGCAAATTATTTTACTCTGTGTAATAAATAAAGGGCG
DNA 2: CGCCCTTTATTTATTACACAGAGTAAAATAATTCAGTGCCAA

Legend:
[1] = biological target: T1, PdhR-His (Escherichia coli K-12 LJ110, UniProt P0ACL9 1-254); experiment: EMSA; no pyruvate; 9-37 pmol PdhR; EMSA, binding buffer and conditions as in ref 17 (not given) plus 0.1 mg/ml herring sperm DNA; 0.1 pmol probe (0.025 pmol for lipA); 6% polyacrylamide gel; pH; conditions: protein: recombinant; tags: C-terminal Penta-His; chain copies: 2; label: 5' DY682 (strand 1); 5' DY782 (strand 2); blunt
[2] = biological target: T1, PdhR-His; experiment: EMSA; no pyruvate; 18-46 pmol PdhR; EMSA, binding buffer and conditions as in ref 17 (not given) plus 0.1 mg/ml herring sperm DNA; 0.1 pmol probe (0.025 pmol for lipA); 6% polyacrylamide gel; pH; conditions: protein: recombinant; tags: C-terminal Penta-His; chain copies: 2; label: 5' DY782 (strand 1); 5' DY682 (strand 2); as printed, strand 2 has 3 extra nt (CAG opposite a gap in strand 1), possible misprint; blunt ends

T1 sequence (P0ACL9 whole entry): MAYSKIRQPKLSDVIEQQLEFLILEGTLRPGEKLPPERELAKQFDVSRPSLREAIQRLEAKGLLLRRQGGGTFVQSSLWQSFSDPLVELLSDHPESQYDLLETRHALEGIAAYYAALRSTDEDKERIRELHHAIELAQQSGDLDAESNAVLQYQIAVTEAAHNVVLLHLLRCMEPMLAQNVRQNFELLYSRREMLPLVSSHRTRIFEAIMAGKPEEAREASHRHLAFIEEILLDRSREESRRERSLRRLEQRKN

| Binder | binding result [1] | binding result [2] |
| --- | --- | --- |
| B1 | binds | – |
| B2 | – | no binding |

— PMC2936295, “Integrative inference of gene-regulatory networks in Escherichia coli using information theoretic concepts and sequence analysis”
